Consider 3 molecules from PMC9606073 (Immunity, 2022).

For orientation: Kd means the constant that tells how readily two partners part at equilibrium. Low readings indicate tighter binding, high ones weaker binding. In general, koff refers to the rate constant with which the complex falls apart. Read a low koff as slow dissociation. By kon is commonly meant the rate constant with which the complex forms. A low value points to slow association.

The target of this experiment is SARS-CoV-2 Omicron BA.4/BA.5 RBD (SARS-CoV-2 Omicron BA.4/BA.5, strain). The experiment is described as follows: SPR. Particulars: both partners purified.

B1: M8a-3 IgG (antibody, V domains shown)
VH: QVQLQQPGAELVLPGASVKLSCKASGYTFTNYWMHWVKQRPGHGLEWIGEIDPFDTYIKINQKFKGKSTLTVDTSSSTAYMQLSSLTSEDSAVYYCARPDSSGYPVYFDYWGQGTTLTVSS
VL: DIVMTQSHKFMSTSVGDRVSITCKASQDVGTYIAWYQQKPGQSPKLLIYWASTRHTGVPDRFTGSGSGTNYTLTISSVQAEDLALYHCQQHYSTPYTFGGGTKLEIK
notes: copies: 2 + 2
Take B1: the Kd stood at 2.2 nM, the koff stood at 0.00045 s⁻¹ and the kon came out at 210000 M⁻¹ s⁻¹.

B2: C118 IgG (antibody, V domains shown)
VH: QVQLVESGGGVVQPGRSLRLSCAASGFTFSNYAMHWVRQAPGKGLEWVAVISYDGSNKYYADSVKGRFTISRDNSKNTLYLQMNSLRAEDTAIYYCASGYTGYDYFVRGDYYGLDVWGQGTTVTVSS
VL: QPVLTQSPSASASLGASVKLTCTLSSGHSSYAIAWHQQQPEKGPRYLMKLNTDGSHSKGDGIPDRFSGSSSGAERYLTISSLQSEDEADYYCQTWGTGILVFGGGTKLTVL
notes: copies: 2 + 2
With B2, the affinity, expressed as Kd, was 28 nM; the koff was 0.0039 s⁻¹; the on-rate (kon) is 140000 M⁻¹ s⁻¹.

B3: M8a-6 IgG (antibody, V domains shown)
VH: QVQLQQPGTELVMPGASVKLSCKTSGYTFTHYWMHWVKQRPGEGLEWIGEIAPSDNYVKYNQKFKGKSTLSVDRSSSTAYMQLSSLTSEDSAVYFCARPDNSGYPVYFDYWGQGTSLTVSS
VL: DIVMTQSQKFMSTSLGDRVSISCKASQDVGTTVAWYQQKPGQSPKLLIYWASTRHTGVPDRFTGTGSGTDYTLTISSVAAEDLALYYCQQHYNTPYTFGGGTKLEIE
notes: copies: 2 + 2
B3 returned an equilibrium dissociation constant (Kd) of 290 nM.
